{"source": "paper PMC2943613", "about": "(Nucleic Acids Research, 2010)", "proteins": {"B1": {"name": "Thermus thermophilus exonuclease I (TTHB178) (enzyme, Thermus thermophilus HB8, UniProt Q53VZ1 1-296, looked up)", "chain": "MAFGVSHPVALDLEATSTDPSEAEVLEVAAVDGEGRVFHRYLATQRPLPPDHEVFQLTGIPYEEYEAKKVAPKEALEELLAFLGGRPLLGHNLLRYDLPLLQRHLEEAGLPRWQGEALDTLRLAHLLFPTPPGGLEGYRLGDLYAFLLGRPLEGAHRALNDAQATLAVFHRLLDRGRRALAQHPGLVRAWRELGLPEGHLFPEDEGLIKDLLAREADVEAFFVEKEGRPFPAPTDLGPDLLPKPRPAQRIKEFVQVAHGVAGQGLVGRERPLHEVLERGLRLAVGEAEEGAVEKEG"}}, "target": "the molecule itself", "test": "SEC"}
{"protein": "B1", "values": [{"measurement": "stoichiometry N", "value": 2}]}
